This passage reports stoichiometry N results from publication PMC12474171.

In test [1] the target is AAVpo.1 capsid (porcine adeno-associated virus po.1; VP1, VP2 and VP3) (adeno-associated virus AAVpo.1 (isolated from porcine tissues)). As to the kind of experiment: cryo-EM structure.
The target in test [2] is AAVpo.6 capsid (porcine adeno-associated virus po.6; VP1, VP2 and VP3) (adeno-associated virus AAVpo.6 (isolated from porcine tissues)). Kind of test: cryo-EM structure.

In test [1], “AAVpo.1 capsid (porcine adeno-associated virus po.1; VP1, VP2 and VP3) (complex)” displayed a stoichiometry N of 60.

In test [2], “AAVpo.6 capsid (porcine adeno-associated virus po.6; VP1, VP2 and VP3) (complex)” showed a stoichiometry N of 60.

As a reminder, the stoichiometry N is a count of units in the complex or per binding partner.
